According to paper PMC4046962:

Biological target: SiaM (Streptomyces sp. A7248)
Assay: small-angle X-ray scattering (SAXS); SiaM in 10 mM Na2HPO4, 1.8 mM KH2PO4, 400 mM Na2SO4, pH 8.3, 4°C; curves of monomer, two dimers and tetramer fitted with CRYSOL; mixture analysed with OLIGOMER

stoichiometry N: 4
Substance: SiaM (enzyme)
